Inhibition of the amidolytic activity of human Factor X activated (dose data for one substance are collected here from patent US20090042786A1.

In the test the target is human Factor X activated (human) (UniProt P00742). Kind of test: cell-based or functional assay.
UniProt P00742, sequence (P00742 235-488 limits assumed): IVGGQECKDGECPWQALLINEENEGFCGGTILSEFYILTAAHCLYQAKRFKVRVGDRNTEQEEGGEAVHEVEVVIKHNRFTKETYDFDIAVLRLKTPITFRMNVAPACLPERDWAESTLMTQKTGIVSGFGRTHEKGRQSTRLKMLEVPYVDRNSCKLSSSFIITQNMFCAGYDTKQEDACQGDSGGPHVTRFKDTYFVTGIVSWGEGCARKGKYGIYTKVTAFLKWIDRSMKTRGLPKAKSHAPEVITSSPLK

In turn, Amblyomin-X recombinant protein came in with an inhibition of the amidolytic activity of human Factor X activated (dose at which inhibition is seen) of 5 to 10 µM.
